Earlier results as cited in article PMC5116920.

Target: Histone H4 (UniProt P62805)

Kd: 100 µM
Substance: TAF1 BD (from UniProt P21675)
